The values that follow come from patent publication US20100331262A1 (KAGOSHIMA UNIVERSITY, published 2010).

The chains are these.
B1: pepB7-C15 (peptide)
peptide: CYGTKPWMC
notes: also called pepB6-C2, C5, C6, C7, C8, C9, C10, and C15; pepD1-C5, C7, and C20

T2 sequence (VH, as listed by the source, chain 1 of 2): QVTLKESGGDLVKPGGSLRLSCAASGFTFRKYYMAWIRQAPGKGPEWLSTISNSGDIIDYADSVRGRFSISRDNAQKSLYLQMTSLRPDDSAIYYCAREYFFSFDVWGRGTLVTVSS
T2 sequence (VL, as listed by the source, chain 2 of 2): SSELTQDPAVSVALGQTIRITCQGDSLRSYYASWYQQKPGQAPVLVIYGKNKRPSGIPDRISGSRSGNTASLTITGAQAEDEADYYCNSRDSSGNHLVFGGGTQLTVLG

For one experiment, the target named is T1, B7 scFv.
T1 construct: also called clone B7 of WO 2005/105998
T1 sequence (VH, as listed by the source, chain 1 of 2): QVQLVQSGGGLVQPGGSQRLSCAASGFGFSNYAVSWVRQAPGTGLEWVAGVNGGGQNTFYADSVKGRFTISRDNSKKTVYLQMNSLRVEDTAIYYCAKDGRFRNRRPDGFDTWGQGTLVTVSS
T1 sequence (VL, as listed by the source, chain 2 of 2): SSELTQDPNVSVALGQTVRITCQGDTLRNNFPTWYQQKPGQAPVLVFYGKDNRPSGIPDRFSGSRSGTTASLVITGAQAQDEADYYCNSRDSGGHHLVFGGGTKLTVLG
In words: phage panning on coated scFv, clones confirmed by phage ELISA. (In general: In an ELISA, binding on a coated surface is turned into a signal by an enzyme label.)
Consider B1, for which the binding result is on record as “binds”.

The next experiment has as its target T2, D1 scFv.
T2 construct: also called clone D1 of WO 2005/105998
The description is as above.
CFGRLPWMC [pepD1-C8]: the binding result is “binds”. The same measure, in the same setting: the result for CFGSLPWMC [pepD1-C10] reads “binds”; that for B1, “binds”; that for CYGTEPWMC (also called pepD1-C13; pepD1-C2, C13) [pepD1-C2], “binds”. Turning to GNTLLDTLVPLI [pepD1-L13], the binding result is “binds”. Turning to SILDILSPRLAE [pepD1-L7], the binding result is “binds”. For the molecule CFGHEPWMC [pepD1-C18], the binding result is “binds”.

For the molecule CFGHKPWMC [pepD1-C11], the binding result is recorded as “binds”. Still for that read-out and setting: the same measure for SSIIDILLPPIY [pepD1-L6]: “binds”.

For the molecule GSPFLDLLAPAA (also called pepD1-L9; pepD1-L5, L9) [pepD1-L5], the binding result is recorded as “binds”. NPLDFYAPSILP [pepD1-L20]: the binding result was “binds”. On to CQGHLPWMC [pepD1-C3], for which the binding result is listed as “binds”.

The target of the next experiment is T3, B6 scFv.
T3 construct: also called clone B6 of WO 2005/105998
T3 sequence (VH, as listed by the source, chain 1 of 2): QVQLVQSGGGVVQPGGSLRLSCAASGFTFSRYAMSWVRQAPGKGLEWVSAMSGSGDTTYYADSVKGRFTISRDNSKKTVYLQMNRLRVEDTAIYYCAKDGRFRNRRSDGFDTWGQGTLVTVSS
T3 sequence (VL, as listed by the source, chain 2 of 2): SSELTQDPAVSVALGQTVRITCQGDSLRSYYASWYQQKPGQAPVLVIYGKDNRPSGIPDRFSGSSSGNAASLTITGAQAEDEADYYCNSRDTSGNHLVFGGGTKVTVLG
Described as above.
Regarding B1, the binding result is on record as “binds”.

For another experiment, the target named is T3, B6 scFv. In words: phage panning and phage ELISA on coated scFv.
TSPILDVLTPPR [pepB6-L10]: the binding result was “binds”. On the same count and under the same terms, the same measure for GMLDIFAPIRHV [pepB6-L1]: “binds”.

The next experiment deals with T4, Aβ oligomers or Aβ fibers formed 1.5 hours after the dissolution of Aβ1-42 (UniProt P05067 672-713).
T4 construct: domain: Aβ1-42; Aggregated conformers of Aβ1-42 after 1.5 h at 40 µM in 20 mM phosphate buffer pH 7.0; The number of copies is not defined; also called Aβ conformers (Aβ oligomers and Aβ fibers)
T4 sequence (P05067 672-713 limits assumed): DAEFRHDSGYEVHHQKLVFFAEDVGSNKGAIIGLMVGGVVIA
As to the kind of experiment: precipitation with streptavidin-magnet beads, Western blot with anti-Aβ antibodies. Background: In western blotting, separated proteins are transferred to a membrane and probed.
Regarding GSGGGSCGYWRSEWGLCG (also called unrelated peptide) [unrelated control peptide (GSGGGSCGYWRSEWGLCG)], the binding result is “no binding”.
